Our source for the percent reduction of binding with 50 µM heparin and Kd values is paper PMC3785480.

One may read the Kd as the concentration at which binding is half-saturated.

In test [1] the target is recombinant BB0347 (Borrelia burgdorferi). Briefly: ELISA.
Test [2] has the same target. Description: ELISA; Figure 5, rBB0347 with full-length Fn; which protein was coated is not told; KD = concentration of added protein at half-maximal binding, assuming saturation. (In an ELISA, binding on a coated surface is turned into a signal by an enzyme label.)

On to “human fibronectin (from UniProt P02751 32-2477) (natural protein)”, for which the percent reduction of binding with 50 µM heparin in test [1] stood at 40%. In addition, in test [2], the Kd amounted to 200 nM.
